From patent US20260275317A1, “CHIMERIC ENDOLYSINS WITH ACTIVITY AGAINST STREPTOCOCCI AND STAPHYLOCOCCI” (UNIVERSITEIT GENT, priority 2023, published 2026)
Values joined by “and” are separate entries in the source; they are usually repeats but may differ in a detail not shown here. Equal values may be shown once.

Tests used:
[1] = test system: stationary phase S. uberis; assay: Turbidity reduction assay (TRA), S. uberis; format: cell-based, Streptococcus uberis
Description: (§1) Concerning the time killing assay, an overnight bacterial culture was diluted 1:10 for S. uberis, S. agalactiae-& dysgalactiae or 1:100 for S. aureus in PBS or UHT-pasteurized whole cow's milk. A volume of 10 μL thereof was combined with an equal amount of chimeric endolysin in PBS (or only PBS as negative control) in triplicate and incubated in a covered 96-well microtiter plate at 37° C. for 2 h. The dose was low (i.e. 0.25 μM), but this was chosen to differentiate between less and better performing variants, consequently allowing a ranking. Finally, these fractions were serially diluted 1:10 in PBS. 5 μL of each fraction was spotted on TSA or BHI-agar and incubated overnight at 37° C. The following day, colony forming units (CFU) were counted and converted to CFU/mL to calculate logarithmic reductions in comparison with the negative control. The relative scores were calculated by dividing the observed logarithmic reduction for each endolysin by the maximal reduction observed for that specific condition and strain. Next, this value was divided by the number of conditions and strains tested (i.e., 8=4 bacterial strains×2 conditions (PBS/UHT-milk)). As such, the best performing candidate in each individual assay received a score of 0.125 (=(1/1)/8). […] Turbidity reduction assays were performed by combining 100 μL of overnight grown bacterial cells with an equal volume of purified enzyme at the desired concentration. Bacterial cells were washed with PBS and resuspended in a 1:1 ratio with enzyme to an OD600 of approximately 1.0. Next, the OD600 was measured using a Tecan infinite 200 PRO plate reader (Tecan, Switzerland) every 15 seconds at 37° C., shaking the 96-well plate between each measurement.
(§2) Time killing and turbidity reduction assays were performed as previously described in 1.3.1.

[2] = test system: stationary phase S. uberis; assay: Time killing assay (TKA), S. uberis; format: cell-based, Streptococcus uberis; settings: for ΔLog10 (CFU/mL): 1 h
Description: as §1, with “A volume of 10 μL thereof was combined with an equal amount of chimeric endolysin in PBS (or only PBS as negative control) in triplicate and incubated in a covered 96-well microtiter plate at 37° C. for 2 h. The dose was low (i.e. 0.25 μM), but this was chosen to differentiate between less and better performing variants, consequently allowing a ranking.” left out
as §2
(§3) Time killing assays were performed as previously described in 1.3.1.

S. dysgalactiae [3] = assay: Turbidity reduction assay (TRA), S. dysgalactiae; format: cell-based, Streptococcus dysgalactiae
Description: as §1, §2

S. dysgalactiae [4] = assay: Time killing assay (TKA), S. dysgalactiae; format: cell-based, Streptococcus dysgalactiae; settings: 0.3 μM
Description: as §1, with “A volume of 10 μL thereof was combined with an equal amount of chimeric endolysin in PBS (or only PBS as negative control) in triplicate and incubated in a covered 96-well microtiter plate at 37° C. for 2 h. The dose was low (i.e. 0.25 μM), but this was chosen to differentiate between less and better performing variants, consequently allowing a ranking.” left out
as §2, §3

[5] = test system: S. uberis GCC ST-143 biofilm; assay: Biofilm eradication assay; format: cell-based, Streptococcus uberis; settings: 1.5 μM, 2 h30, 37° C.
Description: Biofilms were grown by transferring mid-log phase bacteria (OD600=0.6) grown in brain heart infusion (BHI) (Oxoid, Belgium) containing 0.25% α-D-glucose (ThermoFisher Scientific, USA) to a nunclon delta-treated, U-shaped-bottom 96-well microplate (ThermoFisher Scientific, USA). This whole was incubated for 21-24 h in a box containing a wet tissue. Subsequently, media and planktonic cells were removed and 1.5 µM of chimeric endolysin was allowed to eradicate the biofilms during 2 h30 at 37° C. on a shaker at 120 rpm. […] Biomass was fixated with 100% ethanol (ThermoFisher Scientific, USA) and stained with crystal violet (0.1% crystal violet (Sigma-Aldrich, USA), 5% methanol and isopropanol (ThermoFisher Scientific, USA) in PBS. Triple washing with PBS by inverting the plate was executed before solubilizing the stained biomass in 30% acetic acid (Chem-Lab, Belgium). OD590 nm was measured using a CLARIOstar Plus plate reader (BMG Labtech, The Netherlands). Logarithmic reductions were determined by scraping biomass from the wells with a sterile tooth picker followed by resuspension in PBS, which was subsequently serially diluted and spotted on BHI-agar. CFU/mL were counted after overnight incubation at 37° C.

[6] = Clinical S. uberis 1 (Unknown ST and GCC), 0.3 μM
[7] = Clinical S. uberis 2 (Unknown ST, GCC 5), 0.3 μM
[8] = Clinical S. uberis 3 (Unknown ST, GCC 5), 0.3 μM
[9] = Clinical S. uberis 4 (ST 815, GCC 143), 0.3 μM
[10] = Clinical S. uberis 5 (ST 944, GCC 5), 0.3 μM
[11] = Subclinical S. uberis 1 (ST 808, GCC 143), 0.3 μM
[12] = Subclinical S. uberis 2 (Unknown ST and GCC), 0.3 μM
[13] = Subclinical S. uberis 3 (Unknown ST, GCC 5), 0.3 μM
[14] = Subclinical S. uberis 4 (Unknown ST and GCC), 0.3 μM

B1: NC5: chimeric endolysin SEQ ID NO: 17; HIV-1 TAT + PlySs2 CHAP + Ply1081 CW_7 + PlySs9 amidase_3 (protein)
chain: MYGRKKRRQRRRGATTVNEALNNVRAQVGSGVSVGNGECYALASWYERMISPDATVGLGAGVGWVSGAIGDTISAKNIGSSYNWQANGWTVSTSGPFKAGQIVTLGATPGNPYGHVVIVEAVDGDRLTILEQNYGGKRYPVRNYYSAASYRQQVVHYITPPGTVAQSAPNLAGAGIDQLVQETLAGKYGNGEQRKAALGSQYQAVMAVINGKATAPKKTVDQLAQEVIQGKHGNGEDRKKSLGPDYDAVQKRVTEILKGSPSGNIPKTPSDAPKSEVVNSSTEPKTEETGANGKATDTKITKGSGKHLVICGHGQGRTGYDPGAVNAKLGITEAGKVRELSKLMSKYSGQQIDFITEQNVYDYRSITSIGKGYDSITELHFNAFNGSAKGTEVLIQSSLEADKEDMAILSLLSRYFQNRGIKKVDWLYNANQAASRGYTYRLVEIAFIDNEQDMAIFENKKEDIAKGLVSAITGVEVKTIVPSPPSSTVGSSGTPSKSIYLVGDSLRVLPHATHYQTGQKIANWVKGRTYKILQVKNVHQSNSKRAYLLDGIKSWVLEQDVEGTTKGHSKYHHHHHH
lysis in comparative TRA versus NC3 and NC8 ([1]; 0.5 μM, S. uberis 0140J): lysed the bacterial cells faster and resulted in a higher reduction of the OD600 | lysis speed (ΔOD600/min)/μM [1, 6]: 0.06 (ΔOD600/min)/μM | ΔOD600 ([1]; Clinical S. uberis 1 (Unknown ST and GCC), 1 h, 0.3 μM): 0.42 | lysis speed (ΔOD600/min)/μM [1, 7]: 0.11 (ΔOD600/min)/μM | ΔOD600 ([1]; Clinical S. uberis 2 (Unknown ST, GCC 5), 1 h, 0.3 μM): 0.38 | lysis speed (ΔOD600/min)/μM [1, 8]: 0.44 (ΔOD600/min)/μM | ΔOD600 ([1]; Clinical S. uberis 3 (Unknown ST, GCC 5), 1 h, 0.3 μM): 0.62 | lysis speed (ΔOD600/min)/μM [1, 9]: 0.05 (ΔOD600/min)/μM | ΔOD600 ([1]; Clinical S. uberis 4 (ST 815, GCC 143), 1 h, 0.3 μM): 0.63 | lysis speed (ΔOD600/min)/μM [1, 10]: 0.21 (ΔOD600/min)/μM | ΔOD600 ([1]; Clinical S. uberis 5 (ST 944, GCC 5), 1 h, 0.3 μM): 0.59 | ΔOD600 ([1]; S. uberis 0140J, 0.3 μM): 0.57±0.00 | lysis speed (ΔOD600/min)/μM, NC5 pairwise versus NC2 ([1]; S. uberis (sub)clinical isolates, 0.3 μM): significantly (p <0.01) faster | lysis speed (ΔOD600/min)/μM [1, 11]: 0.43 (ΔOD600/min)/μM | ΔOD600 ([1]; Subclinical S. uberis 1 (ST 808, GCC 143), 1 h, 0.3 μM): 0.66 | lysis speed (ΔOD600/min)/μM [1, 12]: 0.11 (ΔOD600/min)/μM | ΔOD600 ([1]; Subclinical S. uberis 2 (Unknown ST and GCC), 1 h, 0.3 μM): 0.65 | lysis speed (ΔOD600/min)/μM [1, 13]: 0.39 (ΔOD600/min)/μM | ΔOD600 ([1]; Subclinical S. uberis 3 (Unknown ST, GCC 5), 1 h, 0.3 μM): 0.53 | lysis speed (ΔOD600/min)/μM [1, 14]: 0.28 (ΔOD600/min)/μM | ΔOD600 ([1]; Subclinical S. uberis 4 (Unknown ST and GCC), 1 h, 0.3 μM): 0.42 | ΔLog10 (CFU/mL) [2, 6]: 0.03 Log10 (CFU/mL) | ΔLog10 (CFU/mL) [2, 7]: 4.05±0.07 Log10 (CFU/mL) and 4.05 Log10 (CFU/mL) | ΔLog10 (CFU/mL) [2, 8]: 1.82 Log10 (CFU/mL) | ΔLog10 (CFU/mL) [2, 9]: 0.00 Log10 (CFU/mL) | ΔLog10 (CFU/mL) [2, 10]: 0.71 Log10 (CFU/mL) | Δ log10 ([2]; S. uberis 0140J, 0.3 μM): 1.16±0.06 log10 | ΔLog10 (CFU/mL) [2, 11]: 3.02±0.37 Log10 (CFU/mL) and 3.02 Log10 (CFU/mL) | ΔLog10 (CFU/mL) [2, 12]: 1.13 Log10 (CFU/mL) | ΔLog10 (CFU/mL) [2, 13]: 1.24 Log10 (CFU/mL) | ΔLog10 (CFU/mL) [2, 14]: 2.48 Log10 (CFU/mL) | log10 reduction ([2]; mastitis-derived S. uberis GCC ST-5, 0.3 μM, versus PBS): 1.17±0.06 log10 | lysis speed (ΔOD600/min)/μM (S. dysgalactiae [3]; S. dysgalactiae 1, 0.3 μM): 0.25 (ΔOD600/min)/μM | ΔOD600 (S. dysgalactiae [3]; S. dysgalactiae 1, 1 h, 0.3 μM): 0.48 | lysis speed (ΔOD600/min)/μM (S. dysgalactiae [3]; S. dysgalactiae 2, 0.3 μM): 0.30 (ΔOD600/min)/μM | ΔOD600 (S. dysgalactiae [3]; S. dysgalactiae 2, 1 h, 0.3 μM): 0.66 | lysis speed (ΔOD600/min)/μM (S. dysgalactiae [3]; S. dysgalactiae 3, 0.3 μM): 0.25 (ΔOD600/min)/μM | ΔOD600 (S. dysgalactiae [3]; S. dysgalactiae 3, 1 h, 0.3 μM): 0.51 | ΔOD, reductions up to (S. dysgalactiae [3]; three clinical S. dysgalactiae isolates, 0.3 μM): ≤ 0.48±0.03 | ΔLog10 (CFU/mL) (S. dysgalactiae [4]; S. dysgalactiae 1, 1 h): 1.77 Log10 (CFU/mL) | ΔLog10 (CFU/mL) (S. dysgalactiae [4]; S. dysgalactiae 2, 1 h): 0.15 Log10 (CFU/mL) | ΔLog10 (CFU/mL) (S. dysgalactiae [4]; S. dysgalactiae 3, 1 h): 1.11 Log10 (CFU/mL) | log10 reduction (S. dysgalactiae [4]; mastitis-derived S. dysgalactiae, versus PBS): 1.11±0.17 log10 | Δ log10, reductions up to (S. dysgalactiae [4]; three clinical S. dysgalactiae isolates): ≤ 1.77±0.43 log10 | reduction of biofilm mass (crystal violet) [5]: significant (p<0.001) reduction of the biofilm mass | Δ Log10 reduction of biofilm CFU [5]: 1.17±0.39 Log10
